In assay [1] the target is CYP3A4 K421A (N-terminus truncated) (human) (UniProt P08684). Description: spectral titration.
Assay [2] deals with CYP3A4 wild-type (N-terminus truncated) (human) (UniProt P08684). Description: spectral titration.
Assay [3] addresses CYP3A4 K96A (N-terminus truncated) (human) (UniProt P08684). Description: spectral titration.
Assay [4] has as its target CYP3A4 K421A (N-terminus truncated) (human) (UniProt P08684).
Assay [5] addresses CYP3A4 wild-type (N-terminus truncated) (human) (UniProt P08684).
For assay [6], the target named is CYP3A4 K96A (N-terminus truncated) (human) (UniProt P08684).
For assay [7], the target named is CYP3A4 K421A (N-terminus truncated) (human) (UniProt P08684). The source holds these as a separate data set.
Assay [8] concerns the target CYP3A4 wild-type (N-terminus truncated) (human) (UniProt P08684). This is another data set of the same source.
The target in assay [9] is CYP3A4 K96A (N-terminus truncated) (human) (UniProt P08684). This is another data set of the same source.

Usually Kd stands for the concentration at which binding is half-saturated.

Regarding “reconstituted holo b5 (human cyt b5 made in-house) (from UniProt P00167 1-134) (natural protein)”, the dissociation constant Kd came out at 287 nM in [1], 140 nM in assay [2] and 346 nM in assay [3].
On to “Histidine-tagged recombinant human cyt b5 (commercial holo b5) (from UniProt P00167 1-134) (natural protein)”, for which the Ratio of Vmax + b5/− b5, testosterone 6β-hydroxylation, CYP:CPR:cyt b5 1:2:1 worked out at 2 in assay [4], 1.7 in assay [5] and 1.3 in assay [6].

B1: rat cytochrome P450 reductase (enzyme)
chain: MGDSHEDTSATMPEAVAEEVSLFSTTDMVLFSLIVGVLTYWFIFRKKKEEIPEFSKIQTTAPPVKESSFVEKMKKTGRNIIVFYGSQTGTAEEFANRLSKDAHRYGMRGMSADPEEYDLADLSSLPEIDKSLVVFCMATYGEGDPTDNAQDFYDWLQETDVDLTGVKFAVFGLGNKTYEHFNAMGKYVDQRLEQLGAQRIFELGLGDDDGNLEEDFITWREQFWPAVCEFFGVEATGEESSIRQYELVVHEDMDVAKVYTGEMGRLKSYENQKPPFDAKNPFLAAVTANRKLNQGTERHLMHLELDISDSKIRYESGDHVAVYPANDSALVNQIGEILGADLDVIMSLNNLDEESNKKHPFPCPTTYRTALTYYLDITNPPRTNVLYELAQYASEPSEQEHLHKMASSSGEGKELYLSWVVEARRHILAILQDYPSLRPPIDHLCELLPRLQARYYSIASSSKVHPNSVHICAVAVEYEAKSGRVNKGVATSWLRAKEPAGENGGRALVPMFVRKSQFRLPFKSTTPVIMVGPGTGIAPFMGFIQERAWLREQGKEVGETLLYYGCRRSDEDYLYREELARFHKDGALTQLNVAFSREQAHKVYVQHLLKRDREHLWKLIHEGGAHIYVCGDARNMAKDVQNTFYDIVAEFGPMEHTQAVDYVKKLMTKGRYSLDVWS
Take B1: the results for the apparent K'm,CPR of TST 6β-hydroxylation at varying CPR concentrations in [7], in assay [8] and in assay [9] were 70 nM, 41 nM and 91 nM, respectively.

The values are drawn from PMC3568533.
